We go through 32 molecules from patent US20240116985A1, “STAPLED PEPTIDES AND METHODS THEREOF” (priority 2020, published 2024).

Experiment [1] deals with full-length beta-Catenin (Uniprot ID P35222) (Homo sapiens (Human)) (UniProt P35222). The experiment can be described thus: fluorescence polarization competition; displacement of 5FAM-TCF4(10-53) from full-length beta-catenin.
Target sequence in this assay (P35222 whole entry): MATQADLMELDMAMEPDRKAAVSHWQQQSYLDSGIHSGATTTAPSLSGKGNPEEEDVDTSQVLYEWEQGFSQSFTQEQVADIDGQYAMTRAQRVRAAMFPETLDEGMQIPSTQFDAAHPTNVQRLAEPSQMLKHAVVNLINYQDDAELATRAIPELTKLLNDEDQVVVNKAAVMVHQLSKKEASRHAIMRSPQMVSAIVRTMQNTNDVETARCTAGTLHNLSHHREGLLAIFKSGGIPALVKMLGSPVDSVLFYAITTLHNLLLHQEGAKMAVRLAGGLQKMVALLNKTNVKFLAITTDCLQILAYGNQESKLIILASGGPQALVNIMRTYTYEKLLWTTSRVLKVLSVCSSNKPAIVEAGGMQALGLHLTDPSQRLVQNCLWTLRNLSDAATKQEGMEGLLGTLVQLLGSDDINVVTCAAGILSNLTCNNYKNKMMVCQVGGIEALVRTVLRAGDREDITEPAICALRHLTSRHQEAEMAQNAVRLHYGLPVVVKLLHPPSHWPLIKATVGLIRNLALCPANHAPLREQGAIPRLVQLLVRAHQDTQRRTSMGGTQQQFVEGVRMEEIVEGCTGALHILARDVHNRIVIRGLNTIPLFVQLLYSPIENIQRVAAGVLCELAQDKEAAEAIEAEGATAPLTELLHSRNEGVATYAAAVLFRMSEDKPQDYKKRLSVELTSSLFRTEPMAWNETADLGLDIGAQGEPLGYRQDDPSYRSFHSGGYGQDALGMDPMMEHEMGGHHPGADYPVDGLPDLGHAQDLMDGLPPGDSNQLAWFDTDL
Experiment [2] shares this target. In words: fluorescence polarization competition; full-length beta-catenin + 5FAM-TCF4(10-53) probe as competitor. (Polarisation of emitted light reports the rotation of a fluorescent probe.)
Target sequence in this assay (P35222 2-781 limits assumed): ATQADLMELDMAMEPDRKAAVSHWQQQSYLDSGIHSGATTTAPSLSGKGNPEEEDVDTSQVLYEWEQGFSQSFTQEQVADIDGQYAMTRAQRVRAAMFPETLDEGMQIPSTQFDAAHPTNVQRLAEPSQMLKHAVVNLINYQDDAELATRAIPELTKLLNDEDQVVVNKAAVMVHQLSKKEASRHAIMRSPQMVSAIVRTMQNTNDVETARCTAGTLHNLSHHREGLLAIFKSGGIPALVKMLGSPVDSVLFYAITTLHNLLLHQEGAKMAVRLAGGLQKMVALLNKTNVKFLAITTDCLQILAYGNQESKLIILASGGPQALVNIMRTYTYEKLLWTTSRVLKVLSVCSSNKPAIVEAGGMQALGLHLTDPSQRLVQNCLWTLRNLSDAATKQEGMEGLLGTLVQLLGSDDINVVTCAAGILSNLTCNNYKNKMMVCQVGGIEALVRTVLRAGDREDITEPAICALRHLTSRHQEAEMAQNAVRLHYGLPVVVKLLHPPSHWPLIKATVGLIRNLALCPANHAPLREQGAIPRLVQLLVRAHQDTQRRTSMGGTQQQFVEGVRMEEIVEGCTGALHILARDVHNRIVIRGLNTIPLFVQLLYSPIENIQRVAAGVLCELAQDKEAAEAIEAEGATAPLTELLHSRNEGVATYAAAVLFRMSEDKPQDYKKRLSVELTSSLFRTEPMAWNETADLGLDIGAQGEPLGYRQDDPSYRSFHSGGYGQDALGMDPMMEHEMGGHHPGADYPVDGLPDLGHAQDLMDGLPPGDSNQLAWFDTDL
For experiment [3] the target is unchanged. In words: fluorescence polarization competition; full-length beta-catenin with 5FAM-labeled TCF4 residues 10-53 probe as competitor.
Target sequence in this assay (P35222 whole entry): as the sequence (P35222 whole entry) above
Experiment [4] has the same target. In words: fluorescence polarization competition; peptide titrated against 10 nM full-length beta-catenin + 10 nM 5FAM-TCF4(10-53).
Target sequence in this assay (P35222 2-781 limits assumed): as the sequence (P35222 2-781 limits assumed) above
Experiment [5] shares this target. In words: fluorescence polarization competition; 10 nM full-length beta-catenin + 10 nM 5FAM-TCF4(10-53) probe.
Target sequence in this assay (P35222 whole entry): as the sequence (P35222 whole entry) above
Experiment [6] has the same target. The experiment can be described thus: FP competition: displacement of 5FAM-TCF4(10-53) from full-length beta-catenin.
Target sequence in this assay (P35222 whole entry): as above
The target is the same in experiment [7]. The experiment can be described thus: fluorescence polarization competition; full-length beta-catenin, competitor 5FAM-TCF4(10-53) probe.
Target sequence in this assay (P35222 whole entry): as above

Starred links: 1 amine or outer side, 2 acyl side, 3 side chain; linkers in the order of their positions; H or OH if unused. Positions of bridges follow the written chain, without caps; N, C: chain ends. Non-standard residues stand in square brackets, D forms with d. Primed or numbered codes have the meaning given here. *: point of attachment. PyrS2(3) = (S)-3-amino-1-((pent-4-en-1-yloxy)carbonyl)pyrrolidine-3-carboxylic acid, stapling residue, C=CCCCOC(=O)N1CC[C@@](N[*:1])(C(=O)[*:2])C1; PyrS2″ = (S)-3-amino-1-((pent-4-en-1-yloxy)carbonyl)pyrrolidine-3-carboxylic acid (stapling residue), C=CCCCOC(=O)N1CC[C@@](N[*:1])(C(=O)[*:2])C1; B5(4) = 2,2-bis(4-pentenyl)glycine = 2-amino-2-(pent-4-en-1-yl)hept-6-enoic acid (stitching residue), C=CCCCC(CCCC=C)(N[*:1])C(=O)[*:2]; B5(5) = 2,2-bis(4-pentenyl)glycine, 2-amino-2-(pent-4-en-1-yl)hept-6-enoic acid (stitching residue), C=CCCCC(CCCC=C)(N[*:1])C(=O)[*:2]; B5(3) = 2,2-bis(4-pentenyl)glycine (stitching residue), C=CCCCC(CCCC=C)(N[*:1])C(=O)[*:2]; B5″ = 2,2-bis(4-pentenyl)glycine, stitching residue, C=CCCCC(CCCC=C)(N[*:1])C(=O)[*:2]; Phe(2-Cl) = N[C@@H](Cc1ccccc1Cl)C(=O)O; Phe(2-OMe) = COc1ccccc1C[C@H](N)C(=O)O; 1Nal = N[C@@H](Cc1cccc2ccccc12)C(=O)O; 2Nal = N[C@@H](Cc1ccc2ccccc2c1)C(=O)O; Phe(2-F) = N[C@@H](Cc1ccccc1F)C(=O)O; Bta = N[C@@H](Cc1csc2ccccc12)C(=O)O; αAllylPro = C=CC[C@@]1(C(=O)O)CCCN1; tBuAla = CC(C)(C)C[C@H](N)C(=O)O; 3Thi = N[C@@H](Cc1ccsc1)C(=O)O; Cha = N[C@@H](CC1CCCCC1)C(=O)O; S8 = C=CCCCCCC[C@](C)(N)C(=O)O; hLeu = CC(C)CC[C@H](N)C(=O)O; Prolinol = OC[C@@H]1CCCN1*; Nle = CCCC[C@H](N)C(=O)O; Dap = NC[C@H](N)C(=O)O; Ms = CS(=O)(=O)*

Consider Ac-[αAllylPro]D[Cha][B5(5)]DDAAFS[PyrS2″][Phe(2-F)][Bta]S-NH2 (staple 1-4, 4-11) [I-1102], for which the IC50 in experiment [1] is 16 nM. The EC50 in experiment [2] worked out at 16 nM. In turn, Ac-[αAllylPro]D[tBuAla][B5(4)]DEAAFQ[S8]F[Bta]Q-NH2 (staple 1-4, 4-11) [I-544] came in with an IC50 in experiment [3] of 24 nM. The same molecule came in with an EC50 in experiment [1] of 24 nM.

Ac-[αAllylPro]D[tBuAla][B5(5)]DDAAFS[PyrS2″][Phe(2-OMe)][Bta]S-NH2 (staple 1-4, 4-11) [I-1103] yielded a half-inhibitory concentration (IC50) in experiment [1] of 15 nM. Further, in experiment [2], the EC50 was determined as 15 nM. For Ac-[αAllylPro]D[tBuAla][B5(4)]DEAAFT[S8][Phe(2-Cl)][Bta]T-NH2 (staple 1-4, 4-11) [I-1091], the IC50 in experiment [4] stood at 27 nM. Also, the EC50 in experiment [2] came to 27 nM.

In turn, Ac-[αAllylPro]D[tBuAla][B5(5)]DEAAFT[S8][Phe(2-Cl)][Bta][dT]-NH2 (staple 1-4, 4-11; also: later-eluting isomer) [I-1094] showed a half-inhibitory concentration (IC50) in experiment [1] of 46 nM. Also, in experiment [2], the EC50 stood at 46 nM. Regarding Ac-[αAllylPro]D[tBuAla][B5(4)]DEAAFT[S8][Phe(2-Cl)][Bta]Q-NH2 (staple 1-4, 4-11; also: earlier-eluting isomer composition) [I-1088], in experiment [4], the IC50 was found to be 22 nM. Moreover, in experiment [2], the EC50 turned out to be 22 nM.

Ac-[αAllylPro]D[Cha][B5(5)]DDAAFL[PyrS2″][Phe(2-Cl)][Bta]S-NH2 (staple 1-4, 4-11) [I-1112] came in with an IC50 in experiment [1] of 40 nM. Also, the EC50 in experiment [2] amounted to 40 nM. With Ac-[αAllylPro]D[tBuAla][B5(4)]DDAAFN[PyrS2″][Phe(2-Cl)][Bta]-Prolinol (staple 1-4, 4-11) [I-1084], the IC50 in experiment [4] was found to be 368 nM. Moreover, the EC50 in experiment [2] was 368 nM. Turning to Ac-[αAllylPro]DA[B5(4)]D[Dap](Ms)AAFN[S8]F[Bta]Q-NH2 (staple 1-4, 4-11) [I-533], the half-inhibitory concentration (IC50) in experiment [3] was found to be 155 nM. Further, in experiment [5], the EC50 was found to be 155 nM.

Ac-[αAllylPro]D[tBuAla][B5(5)]DEAAFL[S8][Phe(2-Cl)][Bta][dT]-NH2 (staple 1-4, 4-11) [I-1098]: in experiment [1], the IC50 came to 100 nM. Further, the EC50 in experiment [2] is 100 nM. In the case of Ac-[αAllylPro]D[tBuAla][B5(4)]DEAAFT[S8][Phe(2-Cl)][Bta]Q-NH2 (staple 1-4, 4-11; also: later-eluting isomer composition) [I-1089], in experiment [4], the IC50 came to 12 nM. In experiment [2], the EC50 turned out to be 12 nM.

Consider Ac-[αAllylPro][Dap](Ms)A[B5(4)]DEAAFN[S8]F[Bta]Q-NH2 (staple 1-4, 4-11) [I-534], for which the concentration for half-maximal inhibition (IC50) in experiment [3] amounted to 5000 nM. In experiment [5], the EC50 turned out to be 5000 nM. Ac-[αAllylPro]D[tBuAla][B5″]NDAAFN[PyrS2(3)][3Thi][Bta]Q-NH2 (staple 1-4, 4-11) [I-1206]: in experiment [6], the EC50 was 32 nM. Regarding Ac-[αAllylPro]D[tBuAla][B5(4)]DEAAFT[S8][Phe(2-Cl)][Bta][dT]-NH2 (staple 1-4, 4-11; also: earlier-eluting isomer composition) [I-1093], in experiment [1], the IC50 was 43 nM. Besides, the 50% effective concentration (EC50) in experiment [2] turned out to be 43 nM. As for Ac-[αAllylPro]DI[B5(4)]DDAAFN[S8][3Thi][Bta]Q-NH2 (staple 1-4, 4-11) [I-552], the IC50 in experiment [3] was found to be 15.5 nM. Moreover, the EC50 in experiment [1] was found to be 15.5 nM. Turning to Ac-[αAllylPro]D[hLeu][B5(4)]DEAAFQ[S8]F[Bta]Q-NH2 (staple 1-4, 4-11) [I-545], the IC50 in experiment [3] is 21 nM. Moreover, the EC50 in experiment [1] worked out at 21 nM.

Regarding Ac-[αAllylPro]D[tBuAla][B5(4)]DDAAFT[S8][Phe(2-Cl)][Bta]T-NH2 (staple 1-4, 4-11) [I-1090], the IC50 in experiment [4] is 18 nM. The EC50 in experiment [2] is 18 nM. As to Ac-[αAllylPro]D[tBuAla][B5(4)]DDAAFT[S8][Phe(2-Cl)][Bta]Q-NH2 (staple 1-4, 4-11; also: earlier-eluting HPLC peak staple isomer composition) [I-1086], the IC50 in experiment [4] turned out to be 12 nM. Further, in experiment [2], the EC50 came out at 12 nM. Ac-[αAllylPro]DI[B5(4)]DDAAFN[S8][3Thi][Bta]H-NH2 (staple 1-4, 4-11) [I-555] displayed a half-inhibitory concentration (IC50) in experiment [3] of 41 nM. Besides, the EC50 in experiment [1] was 41 nM.

In experiment [1], Ac-[αAllylPro]D[tBuAla][B5(5)]DDAAFS[PyrS2″][Phe(2-F)][Bta]S-NH2 (staple 1-4, 4-11) [I-1101] had an IC50 of 14 nM. The EC50 in experiment [2] is 14 nM. In the case of Ac-[αAllylPro]D[tBuAla][B5(4)]DDAAFT[S8][Phe(2-Cl)][Bta][dT]-NH2 (staple 1-4, 4-11) [I-1092], the IC50 in experiment [4] worked out at 26 nM. Further, the EC50 in experiment [2] was found to be 26 nM. Consider Ac-[αAllylPro]D[tBuAla][B5″]NDAAFL[PyrS2(3)][3Thi][Bta]Q-NH2 (staple 1-4, 4-11) [I-1207], for which, in experiment [6], the 50% effective concentration (EC50) was 40 nM.

Consider Ac-[αAllylPro]D[tBuAla][B5(5)]SDAAFN[PyrS2″][3Thi][Bta]Q-NH2 (staple 1-4, 4-11) [I-1208], for which the EC50 in experiment [6] was 349 nM.

On to Ac-[αAllylPro]D[1Nal][B5(5)]DDAAFS[PyrS2″][Phe(2-Cl)][Bta]Q-NH2 (staple 1-4, 4-11) [I-1108], for which the IC50 in experiment [1] was determined as 18 nM. Moreover, the EC50 in experiment [2] was 18 nM. In the case of Ac-[αAllylPro]D[Cha][B5(5)]DDAAF[Cha][PyrS2″][Phe(2-Cl)][Bta]Q-NH2 (staple 1-4, 4-11) [I-1107], the IC50 in experiment [1] worked out at 18 nM. Further, the half-maximal effective concentration (EC50) in experiment [2] was 18 nM. As to Ac-[αAllylPro]DI[B5(4)]DDAAFN[S8][3Thi][Bta]H-NH2 (staple 1-4, 4-11) [I-556], the half-maximal inhibitory concentration (IC50) in experiment [3] was 20 nM. This molecule registered an EC50 in experiment [1] of 20 nM. The molecule Ac-[αAllylPro]DI[B5(4)]DDAAFN[S8][3Thi][Bta]Q-NH2 (staple 1-4, 4-11) [I-551] returned an IC50 in experiment [3] of 45 nM. Besides, the EC50 in experiment [1] was determined as 45 nM.

Ac-[αAllylPro]D[Cha][B5(5)]DDAAFS[PyrS2″]F[Bta]S-NH2 (staple 1-4, 4-11) [I-1100] gave an IC50 in experiment [1] of 16 nM. Besides, in experiment [2], the EC50 came out at 16 nM. For Ac-[αAllylPro]D[tBuAla][B5(5)]DEAAFL[S8][Phe(2-Cl)][Bta]Q-NH2 (staple 1-4, 4-11) [I-1096], in experiment [1], the IC50 is 17 nM. Besides, the EC50 in experiment [2] was 17 nM. In the case of Ac-[αAllylPro]D[Cha][B5(5)]DDAAFS[PyrS2″][Phe(2-OMe)][Bta]S-NH2 (staple 1-4, 4-11) [I-1104], the IC50 in experiment [1] amounted to 10 nM. Besides, in experiment [2], the EC50 stood at 10 nM. Ac-[αAllylPro]D[2Nal][B5(5)]DDAAFS[PyrS2″][Phe(2-Cl)][Bta]Q-NH2 (staple 1-4, 4-11) [I-1109]: the 50% inhibitory concentration (IC50) in experiment [1] amounted to 24 nM. Also, in experiment [2], the EC50 was found to be 24 nM.

As for Ac-[αAllylPro]DI[B5(4)]DEAA[Nle]Q[S8]F[Bta]Q-NH2 (staple 1-4, 4-11) [I-728], the EC50 in experiment [3] stood at 289 nM. Moreover, in experiment [7], the IC50 was 289 nM.

The term IC50 denotes the midpoint of a concentration-inhibition curve. By EC50 is commonly meant the concentration giving half of the maximal effect.
